Results taken from paper doi:10.1101/2020.10.20.346890 (bioRxiv, 2020).
Residue numbers refer to the chain shown, from its start. Values joined by “and” are separate entries in the source; they are usually repeats but may differ in a detail not shown here. Equal values may be shown once.

B1: HU-B wild type (natural protein)
chain: MNKSQLIDKIAAGADISKAAAGRALDAIIASVTESLKEGDDVALVGFGTFAVKERAARTGRNPQTGKEITIAAAKVPSFRAGKALKDAVN
B2: LysrHU-B (lysine-replaced HU-B) (other)
chain: B1 chain with K83A, K86A
B3: LoodHU-B (loop-deleted HU-B) (other)
chain: MNKSQLIDKIAAGADISKAAAGRALDAIIASVTESLKEGDDVALVGFGTFASGGGGSGGGGSKVPSFRAGKALKDAVN
B4: LoodLysrHU-B (loop-deleted and lysine-replaced HU-B) (other)
chain: B3 chain with K71A, K74A

How the values were obtained:
cross-linking = target: the molecule itself; test: cross-linking
SEC = target: the molecule itself; test: SEC

Row | Protein | stoichiometry N (cross-linking) | stoichiometry N (SEC)
1 | B1 | 4 and 3 and 6 | 2
2 | B2 | 2 and 4 | 
3 | B3 | 4 | 2
4 | B4 | 2 and 4 | 
